Laboratory results taken from the supplement of paper PMC12764529.
± gives the half width of the 95% confidence interval.

How the values were obtained:
[1] = folding stability dG unfold from trypsin proteolysis; higher = more stable
Procedure, shortened: (§1)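 Unfolding free energy was derived, per protease or combined, against a sequence-predicted unfolded-state K50 and a shared folded-state K50, starting from K50 inferred by Bayesian fitting of sequencing counts. Digestion with trypsin and chymotrypsin was carried out on designed mini-proteins under 80 residues without cysteine in a PA-tagged cDNA display construct. Only designs with AlphaFold2 dimer inter-PAE above 15 were kept.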

[2] = folding stability dG unfold (combined trypsin and chymotrypsin); higher = more stable
Procedure, shortened: as §1

[3] = folding stability dG unfold from chymotrypsin proteolysis; higher = more stable
Procedure, shortened: as §1

Sequence | folding stability dG unfold [1] [kJ/mol] | folding stability dG unfold [2] [kJ/mol] | folding stability dG unfold [3] [kJ/mol]
SANVRRREIRIPAKDMPPNQIRDALRDLGFPPSKIENLDIERHKGNMITVKIYWTFENGQKQKIELHIPSAG [r14_30_TrROS] | -0.439 ± 1 | 4.66 ± 0.795 | 5.42 ± 0.879
SANWHRFTIEAWVPVRDPNGKPIRPEQVEEQAERIANELWPRGFPIKDVTVEQHPDGWVRITATIEVPDSAG [r14_470_TrROS] | 10.4 ± 0.335 | 12.3 ± 0.46 | 13.12 ± 0.092
SAPDKIEIPITFPNGYTFWIKIDPDRIRVTWMDNGLRREKEITPDGMIKLDFRMPNGRPIMSPTIPLEDSAG [r14_213_TrROS] | 4.12 ± 0.117 | 6.45 ± 0.247 | 8.09 ± 0.502
SAPDVGPEERARRLIEEARAEVEAARAAGDPSVPRRVVFDELAVAHPEEAARILEEAARLGIPVEVRPPSAG [r14_908_JUSTAS] | 1.05 ± 0.46 | 3.13 ± 0.347 | 4.1 ± 0.184
SAPILPDAVVSEKPSVSQLPGNSTLVTTTYTYPGGPTITKTTTYTVDPSTGKWTTTSSTTLTPEAAAAASAG [r14_842_JUSTAS] | 1.58 ± 0.172 | 3.16 ± 0.276 | 4.09 ± 0.314
SAPKIDSISIMWPGNHWYISIWYPDKNGEPMKEVMFPFESPEDLKDQIEELSPPGDVTVDIYPMPPDAFSAG [r14_964_TrROS] | 5.76 ± 0.197 | 6.33 ± 0.41 | 6.43 ± 0.151
SAPKLEIEEVHVNPNDGMVMITFQIDNLPPGLKITIKPKNGKPRRWTGEPGKPIMFMIPPGVDDIEIEWSAG [r14_671_TrROS] | 6.86 ± 0.201 | 8.12 ± 0.628 | 8.61 ± 0.46
SAPKNYRFKIYFPNGVEFTIPPGWDLEIEEFDPEDGVIRIKMTRYDKDDGKPVEKHDFPFPFRILEPDPSAG [r14_927_TrROS] | 7.23 ± 0.251 | 7.9 ± 1.05 | 7.71 ± 0.962
SAPLDPDQAKEQAENIADYFQDEMQDQFGMDPSDIDVDVKVEQEPNGHYRITVEITMGNMPIEMEIYVPSAG [r14_226_TrROS] | 6.06 ± 0.46 | 7.53 ± 0.502 | 8.77 ± 0.205
SAPLKIDLDIEPIPPGDKVRFNARITYPDGHPIRIPFEIYVPPDEIVIKFPIQDPKNGEPIAPLTFVIKSAG [r14_670_TrROS] | 6.39 ± 0.192 | 6.97 ± 0.795 | 8.25 ± 0.837
SAPLTPEEAEEWAETLADELADKAGIPNVEIKVEPSPDGYWTAEIRFPNNGKKIRITWENGRPKITEIESAG [r14_925_TrROS] | 11.9 ± 0.837 | 11.5 ± 0.669 | 11 ± 0.389
SAPPLPPETITLTLTIDGYEITVTLTRLPDGTVKLTVTVTLPDGTTVTITMYFDAKTNKWYITKIEITPPSA [r9_795_TrROS_Hall] | 16.9 ± 2.01 | 22 ± 1.38 | 21.7 ± 0.502
SAPPPVQTLTLTVYDPETGRLVKIEVTRRPDGTLEVRVEVVDLETNEVTTETITLPGLTLDELLKLLEEASA [r9_618_TrROS_Hall] | 12.9 ± 0.669 | 15.3 ± 0.669 | 16.8 ± 0.669
SAPPRTFIIPIERNPDGNVRLNIRMPGMEIEYEFPPGKDAEDALDKLSPHPGFNVELTEVDPNWIKITFSAG [r14_404_TrROS] | 5.44 ± 0.962 | 5.36 ± 2.01 | 7.32 ± 1.46
SAPSPKTPETLVFLSEEESEVVEERLSPSGKPFLVKRKRRFLRYRYVDEDGNVTSVGEREEPVEEELVLSAG [r14_934_JUSTAS] | 4.12 ± 0.393 | 2.81 ± 0.364 | 0.968 ± 0.544
SAPSPSVPLDPVTTETVLVKDPEKGEEITLEILTDANSDEVLVRITYPDGSEVVLRLKKEEVEKVIEALSAG [r14_240_JUSTAS] | 16.7 ± 1.55 | 14.3 ± 0.502 | 12.9 ± 0.46

Sequence | folding stability dG unfold [1] [kJ/mol] | folding stability dG unfold [2] [kJ/mol] | folding stability dG unfold [3] [kJ/mol]
SAPVIEITEVTFNPDGSVEVTLVIPFPDDPEIPPEEIAKAIKEAFGFEEVTVEPIPETGAWRITLRAPGSAG [r14_228_TrMRF] | 14.2 ± 0.586 | 17 ± 0.502 | 17.5 ± 0.372
SAPVVVVETIPDGGVLIVPAVFEPDKLLEYVEEIVNKIKPKGAEVEAKVIKVEPFEDFVVVTFEVKVKPSAG [r14_345_TrMRF] | 7.09 ± 0.502 | 7.03 ± 0.669 | 7.1 ± 0.134
SARIRFPDGKPIDMEIVNIHRTPNGLTITIVLRHKDEYRVITFEIPPDGEIRIKSVERVPLPPGDPALVSAG [r14_13_TrROS] | 6.1 ± 0.247 | 12.4 ± 0.502 | 14.1 ± 0.247
SASASQTTIEYTVPVPAGTSPDEPLTLTVTLPDKEIPIEVGTLENLPPDATVTITLDTTEPTFTVTLTPSAG [r14_554_JUSTAS] | 6.37 ± 0.213 | 3.34 ± 0.402 | -1.89 ± 0.962
SASESAVVEEEYTIDVTTVTPPGTPTTEPVRLTITRLPPNTVEVTLTAPDGKTVETRVIPLSVSLEELLSAG [r14_559_JUSTAS] | 1.73 ± 0.586 | 2.06 ± 0.669 | 0.56 ± 1.26
SASFRLEFPGVRIEVEVEEVEVFPRPDGRPYRLYRAKIRFLDVPEELQALDFPFSLDDEIEVLFLVSLDSAG [r14_942_TrMRF] | 16.1 ± 0.293 | 17.5 ± 0.502 | 18.2 ± 0.502
SASKKPKLIIVDIVIKPEELKKMKPEELIEKILKELGIPKEKDVKIDLFLEPVELDGEEYYIIPALITNSAG [r14_334_TrMRF] | 4.66 ± 0.544 | 5.18 ± 1.17 | 4.52 ± 0.586
SASLANGGLRVDVELEFDPETHEIRVKRLTLYRGDEPVATADATIAVPPAAPPPPPVVVLDPDVPFDNESAG [r14_571_TrMRF] | 2.87 ± 0.314 | 5.36 ± 0.502 | 7.14 ± 0.351
SASLEEILASLGYSVSRSVLPNGTEVVTARHPDGTTVTVTVTPDGTTVTVTPPDGTVTTLSVEDVRRALSAG [r14_578_JUSTAS] | 12.4 ± 0.188 | 12.7 ± 0.209 | 13.04 ± 0.0711
SASLVPTEREFELPGGERLRVTTPLDPNSDTPTVTVEKFTEAPDGTVTSTTTTVPPSEVAAVLEALGLRSAG [r14_416_JUSTAS] | 2.78 ± 0.0962 | 1.77 ± 0.218 | 0.614 ± 0.188
SASLVVRLPDGTEILFENLSLEEVVKLFDGGEIEIEPVPKLPVVNASSLEEAEEIAEKLKPDFVITLSGSAG [r14_445_TrMRF] | 6.68 ± 0.368 | 6.75 ± 0.31 | 6.68 ± 0.184
SASNRVTVSSETVREGDKKLLKLTVTITDSSTGRTSTETLTTEDPEKAREELAARPDVSTLTFETLTPGSAG [r14_464_JUSTAS] | 1.27 ± 0.502 | 0.42 ± 0.795 | -0.819 ± 0.837
SASPDAPVEVVVSLRELRERIEAEHPGRPVTPEDVAALAREELEAAGRPLEDLRVEAVDEATGTVRLVASAG [r14_303_JUSTAS] | -1.05 ± 0.226 | 3.8 ± 0.146 | 5.4 ± 0.0795
SASPDETVILEKVLPPSASPEEVEKEREEIREKLESLGAKVEVTIEPDPETGTIPIKITITKEQYEKLKSAG [r14_602_JUSTAS] | -1.92 ± 0.268 | 0.142 ± 0.628 | 0.216 ± 0.234
SASPRTITVPVTRFPDGTVRFTIETPDKTITLTFPPSATFEEALEKLSPDPDKKITLVEKDPTTVTVAESAG [r14_404_JUSTAS] | 3.27 ± 0.213 | 3.65 ± 0.544 | 3.56 ± 0.669
